Source: patent US20220213176A1 (SHANGHAITECH UNIVERSITY, published 2022)

B1: S-B8 (antibody, V domains shown)
VH: QVQLVQSGGGLIQPGGSLRLSCAASGFTVSLSHMNWVRQAPGKGLEWVSITYGDGNSDYADSVKGRFTISRDNSKNTLYLQMNSLRAEDTAVYYCAREYYYGMDVWGQGTTVTVSS
VL: not shown
notes: also called S-B8 dimer
B2: S-D4 (antibody, V domains shown)
VH: QVQLQESGGGVVQPGRSLRLSCEVSGFTFSDYGMHWVRQAPGKGLEWVAVIWSEGSTEYYADSVKGRFTISRDNSKDTLYLQMNSLRAEDTAVYYCARPGYPTSTDRSPAAAGARQYYYYGMDVWGQGTTVTVSS
VL: NFMLTQPHSVSESPGKTVTISCTRSGGSGAANYVQWYQQRPGSSPTTLIYEDSRRPPGVPDRFSGSVDTSSNSASLTISGLQTEDEADYYCQSYDSSNHVVFGGGTKLTVLG
notes: also called S-D4 dimer; S-D4 IgG4
B3: S-E6 (antibody, V domains shown)
VH: QVTLRESGPGLVKPSETLSLTCAVSGGSLSSVNYYWSWIRQHPGKGLEWIGYIYYSGSTNYNPSLKSRVTMSLDTSKNQFSLKLSSVTAADTAVYYCATPGAIMGALHIWGQGTLVTVSS
VL: QAVLTQPSSASSTPGQRVIISCSGSSSNIGSNTVSWYQQVPGAAPKLLIYFDYRRPSGVPDRFSGTRSGTSASLGISGLQSEDEADYYCAAWDDSLSAWVFGRGTKLTVLG
notes: also called S-E6 dimer; dimer S-E6

Tests used:
[1] = target: T1, HCoV-OC43 spike (HCoV-OC43, UniProt P36334 14-1353); experiment: FACS, transfected HEK293T cells, IgG4 antibody
T1 construct: whole, on cells; also called HCoV-0C43 spike
T1 sequence: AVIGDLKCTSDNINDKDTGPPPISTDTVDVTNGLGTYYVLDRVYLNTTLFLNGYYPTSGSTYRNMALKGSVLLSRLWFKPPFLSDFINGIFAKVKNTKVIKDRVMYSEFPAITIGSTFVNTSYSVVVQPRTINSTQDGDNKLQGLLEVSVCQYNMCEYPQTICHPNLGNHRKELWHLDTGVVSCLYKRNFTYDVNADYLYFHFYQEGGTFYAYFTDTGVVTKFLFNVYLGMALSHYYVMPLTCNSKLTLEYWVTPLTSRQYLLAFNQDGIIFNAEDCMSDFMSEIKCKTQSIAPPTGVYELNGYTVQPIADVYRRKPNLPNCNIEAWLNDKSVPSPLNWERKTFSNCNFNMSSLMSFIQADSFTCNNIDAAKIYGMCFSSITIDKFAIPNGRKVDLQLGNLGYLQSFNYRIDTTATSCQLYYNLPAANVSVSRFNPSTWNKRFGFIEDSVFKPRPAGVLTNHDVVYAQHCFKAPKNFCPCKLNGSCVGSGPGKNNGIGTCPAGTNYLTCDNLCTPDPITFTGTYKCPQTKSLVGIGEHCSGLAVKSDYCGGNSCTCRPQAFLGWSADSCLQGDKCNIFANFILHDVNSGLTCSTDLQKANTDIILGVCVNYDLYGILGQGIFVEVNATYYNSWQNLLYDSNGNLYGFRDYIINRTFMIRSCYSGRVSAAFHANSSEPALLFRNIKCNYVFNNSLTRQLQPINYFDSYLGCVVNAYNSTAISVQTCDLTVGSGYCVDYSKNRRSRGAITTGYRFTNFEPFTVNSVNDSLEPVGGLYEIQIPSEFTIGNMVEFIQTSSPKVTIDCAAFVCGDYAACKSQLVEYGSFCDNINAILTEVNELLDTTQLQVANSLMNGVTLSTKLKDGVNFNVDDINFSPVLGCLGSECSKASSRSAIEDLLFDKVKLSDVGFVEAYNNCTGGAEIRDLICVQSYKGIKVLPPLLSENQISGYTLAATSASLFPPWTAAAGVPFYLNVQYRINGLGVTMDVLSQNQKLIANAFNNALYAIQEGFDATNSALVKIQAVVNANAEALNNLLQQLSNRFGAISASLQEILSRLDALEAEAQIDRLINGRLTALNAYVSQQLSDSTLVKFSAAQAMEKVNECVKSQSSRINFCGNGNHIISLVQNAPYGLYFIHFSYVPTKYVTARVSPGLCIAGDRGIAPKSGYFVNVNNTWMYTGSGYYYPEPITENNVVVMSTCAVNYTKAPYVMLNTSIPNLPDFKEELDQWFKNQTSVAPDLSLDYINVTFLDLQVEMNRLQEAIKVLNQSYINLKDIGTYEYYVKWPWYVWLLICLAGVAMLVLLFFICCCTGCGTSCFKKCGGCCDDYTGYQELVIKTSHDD

[2] = target: T2, HCoV-HKU1 spike (HCoV-HKU1, UniProt Q5MQD0 13-1356); experiment: FACS, transfected HEK293T cells, IgG4 antibody
T2 construct: whole, on cells
T2 sequence: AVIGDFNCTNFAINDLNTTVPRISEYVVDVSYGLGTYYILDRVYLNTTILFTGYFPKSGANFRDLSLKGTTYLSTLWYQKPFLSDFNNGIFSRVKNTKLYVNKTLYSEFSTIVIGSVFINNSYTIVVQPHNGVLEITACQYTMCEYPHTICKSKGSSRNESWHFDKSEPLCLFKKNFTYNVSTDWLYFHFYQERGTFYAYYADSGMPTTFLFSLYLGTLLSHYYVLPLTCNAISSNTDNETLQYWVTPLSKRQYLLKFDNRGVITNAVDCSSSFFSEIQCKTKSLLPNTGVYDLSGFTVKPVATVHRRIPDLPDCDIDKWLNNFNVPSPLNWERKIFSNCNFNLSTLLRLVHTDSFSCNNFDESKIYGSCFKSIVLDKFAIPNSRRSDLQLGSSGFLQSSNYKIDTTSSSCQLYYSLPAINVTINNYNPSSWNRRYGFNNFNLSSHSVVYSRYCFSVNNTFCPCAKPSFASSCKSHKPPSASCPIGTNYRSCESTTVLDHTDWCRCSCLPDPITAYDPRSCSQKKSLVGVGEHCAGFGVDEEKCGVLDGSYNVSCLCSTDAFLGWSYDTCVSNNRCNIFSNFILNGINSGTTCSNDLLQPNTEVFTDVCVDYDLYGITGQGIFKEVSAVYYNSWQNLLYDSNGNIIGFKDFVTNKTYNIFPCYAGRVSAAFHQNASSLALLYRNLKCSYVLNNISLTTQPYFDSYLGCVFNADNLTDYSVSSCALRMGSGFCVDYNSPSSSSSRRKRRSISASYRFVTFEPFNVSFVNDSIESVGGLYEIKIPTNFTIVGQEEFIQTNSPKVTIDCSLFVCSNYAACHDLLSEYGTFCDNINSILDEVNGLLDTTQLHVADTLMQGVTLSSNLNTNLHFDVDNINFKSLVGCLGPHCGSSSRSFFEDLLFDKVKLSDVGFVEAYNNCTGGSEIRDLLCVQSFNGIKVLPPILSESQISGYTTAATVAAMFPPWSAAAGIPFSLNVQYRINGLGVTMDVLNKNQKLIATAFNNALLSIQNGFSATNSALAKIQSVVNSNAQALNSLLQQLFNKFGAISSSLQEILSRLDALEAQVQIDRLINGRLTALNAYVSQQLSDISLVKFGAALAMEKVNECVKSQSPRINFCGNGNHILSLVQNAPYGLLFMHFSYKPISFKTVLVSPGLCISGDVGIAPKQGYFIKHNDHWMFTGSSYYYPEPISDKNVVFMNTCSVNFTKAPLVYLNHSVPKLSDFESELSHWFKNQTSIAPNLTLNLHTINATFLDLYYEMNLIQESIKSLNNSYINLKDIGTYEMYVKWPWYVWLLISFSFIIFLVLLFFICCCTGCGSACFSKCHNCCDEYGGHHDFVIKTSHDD

Row | Binder | binding result [1] | binding result [2]
1 | B1 | no binding | no binding
2 | B2 | no binding | no binding
3 | B3 | no binding | no binding
